Data: publication PMC1277818, “Substrate specificity analysis of protein kinase complex Dbf2-Mob1 by peptide library and proteome array screening” (BMC Biochemistry, 2005)

Target: T1, FHHDbf2-H6Mob1TM9 (Saccharomyces cerevisiae, UniProt P22204+P40484)
T1 construct: made in house; host or cells: Hi5 insect cells (baculovirus)
T1 sequence (P22204 1-572): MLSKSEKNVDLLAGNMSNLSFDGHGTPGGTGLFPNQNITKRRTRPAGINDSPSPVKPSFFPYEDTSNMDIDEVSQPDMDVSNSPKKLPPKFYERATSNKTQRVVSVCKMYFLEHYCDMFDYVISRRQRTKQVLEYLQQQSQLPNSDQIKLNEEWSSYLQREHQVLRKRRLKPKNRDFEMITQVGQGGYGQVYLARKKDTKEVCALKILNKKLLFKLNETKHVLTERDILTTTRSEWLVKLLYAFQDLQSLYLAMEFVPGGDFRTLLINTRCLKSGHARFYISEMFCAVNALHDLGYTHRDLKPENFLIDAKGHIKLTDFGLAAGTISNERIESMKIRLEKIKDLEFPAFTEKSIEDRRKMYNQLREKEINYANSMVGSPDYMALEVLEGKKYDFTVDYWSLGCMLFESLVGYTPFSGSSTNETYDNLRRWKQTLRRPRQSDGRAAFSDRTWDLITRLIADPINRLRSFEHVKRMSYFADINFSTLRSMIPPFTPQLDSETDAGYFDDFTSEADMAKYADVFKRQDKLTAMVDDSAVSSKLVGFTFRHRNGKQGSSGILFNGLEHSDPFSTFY
T1 sequence (P40484 1-314 partner): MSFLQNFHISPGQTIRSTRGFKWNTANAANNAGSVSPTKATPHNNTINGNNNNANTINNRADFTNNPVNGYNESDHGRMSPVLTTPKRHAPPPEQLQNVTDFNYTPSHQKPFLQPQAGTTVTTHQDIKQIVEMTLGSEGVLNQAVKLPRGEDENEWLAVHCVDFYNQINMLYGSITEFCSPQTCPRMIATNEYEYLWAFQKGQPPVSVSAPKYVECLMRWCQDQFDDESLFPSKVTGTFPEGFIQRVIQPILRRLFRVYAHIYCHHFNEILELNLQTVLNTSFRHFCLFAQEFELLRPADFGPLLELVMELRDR
Assay: Yeast proteome chip assay
Type: biochemical
Conditions: [γ-33P]ATP, chips in duplicate
Description: The relatively low sequence complexity of the Dbf2 phosphorylation motif diminished the power of using genome-wide bioinformatics screens to identify putative substrates. Accordingly, we carried out a proteome array screen to identify putative yeast substrates. […] After taking into account the proteins phosphorylated in the negative controls, 67 proteins were determined to be putative Dbf2-Mob1 substrates (Table 3).
Yeast proteome microarrays were prepared as previously described. Overexpressed GST-tagged yeast proteins were purified from ~4,400 yeast strains and spotted on slides. To determine the optimal amount of kinase to use for probing proteome chips, we performed trial assays as described (J. Ptacek et al., submitted). […] The full proteome array was probed with 4 μl ^FHHDbf2-^H6Mob1^TM9 in 200 μl of DKB supplemented with [γ-^33P]ATP. As a control, ^FHHDbf2(N305A)-^H6Mob1^TM9 was used to probe the proteome array. […] To control for autophosphorylated proteins, the proteome array was probed with 200 μl of DKB supplemented with [γ-^33P]ATP. Proteome chips were assayed in duplicate in each case. Data analysis was performed as described (J. Ptacek et al., submitted). Briefly, signals were analyzed by a computer algorithm designed to normalize background and identify signals as positive if 3 of 4 spots (each protein is spotted twice on each slide and each kinase or control was tested on 2 slides) were 2 standard deviations above background and the fourth spot was 1.5 standard deviations above background.

[1] = Table 3, GST fusion proteins on proteome chip, computer analysis
[2] = Table 4, the 25 proteins with highest signal relative to protein amount

| Molecule | Slide Signal (after normalization) [1] | Slide Signal (after normalization) [2] |
| --- | --- | --- |
| YIL135C: GST fusion yeast protein on proteome chip (protein, UniProt P40463 1-436, looked up, GST tag, GST fusion yeast protein on proteome chip) Protein VHS2: MDTSNHNQDHDSHVAAQRENDNNYMPPSPSMSESSMIFERNVEDPSYLYKTVSNNAANSLSRQSSRTSLFNHNNSSNRNFHNLSQRSSAVNLHLQPSRTNESIASYQTYNPDFVVQTPLDHRRTLENFVPPALDAGCSIVTDDTTGLDDVDMVYSRRPSTIGLDRALGRTRSLSSQSFDNETSPAHPRSPNDHGSRLLRFYSYADMLSDDNNNNVSNATSTSSTANPLRRPPMQGHYSFSSSLLNSPSHLPSPPSASASPPQHMNFTNPFIISRRYSNTTINNANGGTSAGSTTGAALSRSPSNQQYLLKQQRSPSGSARSRRNSNRPGSAANIMIGKPKSKFHMESSGSEGFSSEEEDNTMIERDKLNLKQKLQSQLAQPPSIANMVNDNHNNTNKHKNTINNNIKNSPAFTNSNPSSKSNSNSTITSMNPDTTK | 1.116 | 1.116 |
| YMR239C: GST fusion yeast protein on proteome chip (protein, UniProt Q02555 1-471, looked up, GST fusion, GST fusion yeast protein on proteome chip) Ribonuclease 3: MGSKVAGKKKTQNDNKLDNENGSQQRENINTKTLLKGNLKISNYKYLEVIQLEHAVTKLVESYNKIIELSPNLVAYNEAVNNQDRVPVQILPSLSRYQLKLAAELKTLHDLKKDAILTEITDYENEFDTEQKQPILQEISKADMEKLEKLEQVKREKREKIDVNVYENLNEKEDEEEDEGEDSYDPTKAGDIVKATKWPPKLPEIQDLAIRARVFIHKSTIKDKVYLSGSEMINAHNERLEFLGDSILNSVMTLIIYNKFPDYSEGQLSTLRMNLVSNEQIKQWSIMYNFHEKLKTNFDLKDENSNFQNGKLKLYADVFEAYIGGLMEDDPRNNLPKIRKWLRKLAKPVIEEATRNQVALEKTDKLDMNAKRQLYSLIGYASLRLHYVTVKKPTAVDPNSIVECRVGDGTVLGTGVGRNIKIAGIRAAENALRDKKMLDFYAKQRAAIPRSESVLKDPSQKNKKRKFSDTS | 1.593 | 1.593 |
| YBR118W: GST fusion yeast protein on proteome chip (protein, UniProt P02994 2-458, looked up, GST tag, GST fusion yeast protein on proteome chip) Elongation factor 1-alpha: GKEKSHINVVVIGHVDSGKSTTTGHLIYKCGGIDKRTIEKFEKEAAELGKGSFKYAWVLDKLKAERERGITIDIALWKFETPKYQVTVIDAPGHRDFIKNMITGTSQADCAILIIAGGVGEFEAGISKDGQTREHALLAFTLGVRQLIVAVNKMDSVKWDESRFQEIVKETSNFIKKVGYNPKTVPFVPISGWNGDNMIEATTNAPWYKGWEKETKAGVVKGKTLLEAIDAIEQPSRPTDKPLRLPLQDVYKIGGIGTVPVGRVETGVIKPGMVVTFAPAGVTTEVKSVEMHHEQLEQGVPGDNVGFNVKNVSVKEIRRGNVCGDAKNDPPKGCASFNATVIVLNHPGQISAGYSPVLDCHTAHIACRFDELLEKNDRRSGKKLEDHPKFLKSGDAALVKFVPSKPMCVEAFSEYPPLGRFAVRDMRQTVAVGVIKSVDKTEKAAKVTKAAQKAAKK | 2.619 | 2.619 |
| YNR006W: GST fusion yeast protein on proteome chip (protein, UniProt P40343 1-622, looked up, GST fusion, GST fusion yeast protein on proteome chip) Vacuolar protein …: MSVSTPSELDALIEQATSESIPNGDLDLPIALEISDVLRSRRVNPKDSMRCIKKRILNTADNPNTQLSSWKLTNICVKNGGTPFIKEICSREFMDTMEHVILREDSNEELSELVKTILYELYVAFKNDSQLNYVAKVYDKLISRGIKFPEKLTLSNSPTAMFDSKTPADWIDSDACMICSKKFSLLNRKHHCRSCGGVFCQEHSSNSIPLPDLGIYEPVRVCDSCFEDYDLKRHDDSKKSKKHRHKRKKDRDYSTPEDEEELIRKAIELSLKESRNSASSEPIVPVVESKNEVKRQEIEEEEDPDLKAAIQESLREAEEAKLRSERQKASRQMQPQQPSPQPQPIHSVDLSDEEKDSIYMFASLVEKMKSRPLNEILEDSKLQNLAQRVFASKARLNYALNDKAQKYNTLIEMNGKISEIMNIYDRLLEQQLQSINLSQQYTLPQVPSDPYNYLTENVQNPAESYQTPPLQQLSSHQYKPQQDVSRQQSVKANSSPTTNIDHLKTIDVTPHAQQKPQSHVELAPSDPPYPKEEAEDEGTQAVQDEESSTQESRERPYPVETENGETSINKRPQGITRYDFPTVPARKFVQPESTVPLPASSSEIPIKEERPPSPQEELLIEL | 1.1429 | 1.1429 |
| YDL019C: GST fusion yeast protein on proteome chip (protein, UniProt Q12451 2-1283, looked up, GST fusion, GST fusion yeast protein on proteome chip) Oxysterol-binding protein …: SREDLSIAEDLNQVSKPLLKVKLLEVLGQGDFKHLKALVDNEFQPKDDPSVQQVLNLILHYAVQVAPILLIKEIVAHWVDQVGDEKSSSKSDDGIHLDLNYQDENGNTPLHLAAAQSRSDVISFLLSQKSINDCVKNKAHQQPLDMCKDLNVAQMIQLKRDDYFLETVHSLRAAMNKRDFSKLDSIWKNPRNLNLLDINGIDPETGTTLLYEYSQKKDIEMCQWLLKHGAEATVKDGKGRSPLDLVKNIKLPAKPSNNVTPEIKLKNLLEKNLREQAIVHEDVASSKPPTYKGFLKKWTNFAHGYKLRWFILSGDGNLSYYKDQSHVDRPRGTLKVSTCRLHIDSSEKLNFELLGGITGTTRWRLKGNHPIETTRWVNAIQSAIRFAKDKEILNKKKAVPPSLALKNKSPALISHSKTQGSLPEASQYYQHTLHKEVIQPSSVSLYRRPSNNLSVVSSEIQLNDNLTESGKRFVSKMIENRLDGSKTPVGVHTGSALQRVRSSNTLKSNRSMQSGSGVASPIDKVPNGANLSQSNTTTGSTASLSDNNYIDNFEGDEANSDDEEEDLGINFDRDEEYIKAQYGPYKEKLDMYEQAISIELSSLIELIEQEEPSPEVWLTIKKSLINTSTIFGKLKDLTYKRDKRLVDMVSKQGDVNNVWVQSVKELEMELSNKTERLASIDKERRGLKKILHKKLLESHATAGNKESLENDKEQESDTTASTLGQIAKFISATKEEDEASDADEFYDAAELVDEVTELTEAHPEISTAAAPKHAPPPVPNETDNDSQYVQDEKSKIESNVEKTSQKFEKQNNLVTEDEPKTDQSLKNFKAEDKESQVKEKTKEIASSVIGEKTIVAVTTVQKRKEEYLLKEGSYLGYEDGIRKRLSMDKDDRPKISLWAVLKSMVGKDMTRMTLPVTFNEPTSLLQRVAEDLEYSELLDQAATFEDSTLRTLYVAAFTASSYASTTKRVAKPFNPLLGETFEYSRPDKQYRFFTEQVSHHPPISATWTESPRWDFWGESFVDTKFNGRSFNVKHLGLWHIKLRPNDNEKEELYTWKKPNNTVIGILIGNPQVDNHGEVNVVNHTTGDHCKLYFKARGWRSSGAYEITGEVYNKKKQKVWILGGHWNEAIFAKKVVKDGDLSLEKTRTAASAGNGPTDDGTKFLIWKANDRPEEPFNLTPFAITLNAPQPHLLPWLPPTDTRLRPDQRAMEDGRYDEAGDEKFRVEEKQRAARRKREENNLEYHPQWFVRDTHPITKAKYWRYTGKYWVKRRDHDLKDCGDIF | 0.9962 | 0.9962 |
| YNL101W: GST fusion yeast protein on proteome chip (protein, UniProt P50944 1-713, looked up, GST tag, GST fusion yeast protein on proteome chip) Vacuolar amino acid …: MVTNNGDGEHLGIRRNGNLRHPSNNMKIPRRAQSTVLNSNPFYSRKYSMSTLTPRDICRSVDSRVFVDMSSPNFQTLEDPHRDEIINSVRLNYLNSSKRSSVSHGNEAIPRVNPTKNSSASTIAAANVDSDDDETNLSSAGGDITHDIYKLVKAEDPKRLRRPRSMENVTPKIEHHTKLSSASGLNVPGGFRREFIVNKKRQEHQLNDSASSDFTSHESDSINQSSPSSNQDIDKVPFLTRNFLEFLYVFGHFAGESFEDDFIPDSSNMMIRGEDERSALLSRPDHMKVLPSAKGTTSTKKVFLILLKSFIGTGVLFLPNAFHNGGLFFSVSMLAFFGIYSYWCYYILVQAKSSCGVSSFGDIGLKLYGPWMRIIILFSLVITQVGFSGAYMIFTAKNLQAFLDNVFHVGVLPLSYLMVFQTIIFIPLSFIRNISKLSLPSLLANFFIMAGLVIVIIFTAKRLFFDLMGTPAMGVVYGLNADRWTLFIGTAIFAFEGIGLIIPVQDSMRNPEKFPLVLALVILTATILFISIATLGYLAYGSNVQTVILLNLPQSNIFVNLIQLFYSIAIMLSTPLQLFPAIKIIENKFFPKFTKIYVKHDDLTTRVELRPNSGKLNWKIKWLKNFIRSIIVIIVVSIAYFGSDNLDKFVSVIGSLACIPLVYIYPSMLHLRGNSLPETKGEFWRFKPMLDTILIFFGIASMLYTSYQSIFGV | 2.1486 | 2.1486 |
